Patent US20200002414A1 (published 2020)
Where a chain is given by its changes, count along the chain named. Numbers in names are those of the source.

B1: LC-G049C (antibody, V domains shown)
VH: EVQLQQSGPELVKPGASVKISCKTSGYTFTEYTMHWMKQSHRKSLEWIGGINTNNGGTGYNQKFKGKATLTVDKSSSTAYMELRSLTSEDSAVYFCARGSLYSYGNSYFDYWGQGTLVTVSS
VL: QIVLTQSPAIMSASPGEKVTITCSATSSVSYMHWFQQKPGTSPKLWIYCTSNLASGVPARFSGSGSGTSYSLTISRMEAEDAATYYCQQRSSYPFTFGQGTKVEIK
B2: LC-S030D (antibody, V domains shown)
VH: B1 VH
VL: B1 VL with S30D, C49G
B3: LC-G049P (antibody, V domains shown)
VH: B1 VH
VL: B1 VL with C49P
B4: LC-Q089E (antibody, V domains shown)
VH: B1 VH
VL: B1 VL with C49G, Q89E
B5: LC-T096D (antibody, V domains shown)
VH: B1 VH
VL: B1 VL with C49G, T96D
B6: LC-F097E (antibody, V domains shown)
VH: B1 VH
VL: B1 VL with C49G, F97E
B7: LC-F097D (antibody, V domains shown)
VH: B1 VH
VL: B1 VL with C49G, F97D
B8: LC-S092V (antibody, V domains shown)
VH: B1 VH
VL: B1 VL with C49G, S92V
B9: LC-G049H (antibody, V domains shown)
VH: B1 VH
VL: B1 VL with C49H
B10: LC-S092D (antibody, V domains shown)
VH: B1 VH
VL: B1 VL with C49G, S92D
B11: LC-Y031C (antibody, V domains shown)
VH: B1 VH
VL: B1 VL with Y31C, C49G
B12: LC-R090H (antibody, V domains shown)
VH: B1 VH
VL: B1 VL with C49G, R90H
B13: conditionally active antibody BAP048 (antibody, V domains shown)
VH: EVQLVQSGAEVKKPGESLRISCKGSGYTFTEYTMHWVRQAPGQGLEWMGGINTNNGGTGYNQKFKGRVTISADKSISTAYLQWSSLKASDTAMYYCAHGSLYSYGNSYFDYWGQGTLVTVSS
VL: AIQLTQSPSSLSASVGDRVTITCSATSSVSYMHWYLQKPGQSPQLLIYGTSNLASGVPDRFSGSGSGTDFTLKISRVEAEDVGVYYCQQRSSYPFTFGQGTKVEIK

Target: T1, human Ror2 (human, UniProt Q01974 34-403, limits assumed)
T1 construct: also called hROR2; receptor tyrosine kinase-like orphan receptor 2
T1 sequence (Q01974 34-403 limits assumed): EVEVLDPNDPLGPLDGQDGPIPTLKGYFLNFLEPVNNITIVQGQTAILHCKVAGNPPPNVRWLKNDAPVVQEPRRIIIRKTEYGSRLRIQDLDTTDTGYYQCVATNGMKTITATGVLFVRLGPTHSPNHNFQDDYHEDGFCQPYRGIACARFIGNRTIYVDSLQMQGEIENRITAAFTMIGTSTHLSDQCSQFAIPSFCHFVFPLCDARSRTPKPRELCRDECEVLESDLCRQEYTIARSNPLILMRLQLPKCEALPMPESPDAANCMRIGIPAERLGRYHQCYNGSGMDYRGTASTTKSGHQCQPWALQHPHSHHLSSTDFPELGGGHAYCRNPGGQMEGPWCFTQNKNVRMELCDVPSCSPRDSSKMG
Test: ELISA, human Ror2, pH 7.4

Row | Affinity ELISA pH 7.4 | Binder
1 | 0.133 | B1
2 | 0.252 | B2
3 | 0.268 | B3
4 | 0.251 | B4
5 | 0.474 | B5
6 | 0.215 | B6
7 | 0.107 | B7
8 | 1.18 | B8
9 | 0.118 | B9
10 | 1.12 | B10
11 | 0.7 | B11
12 | 0.256 | B12

Target: T2, mouse Ror2 (mouse, UniProt Q9Z138 34-403, limits assumed)
T2 construct: also called mROR2
T2 sequence (Q9Z138 34-403 limits assumed): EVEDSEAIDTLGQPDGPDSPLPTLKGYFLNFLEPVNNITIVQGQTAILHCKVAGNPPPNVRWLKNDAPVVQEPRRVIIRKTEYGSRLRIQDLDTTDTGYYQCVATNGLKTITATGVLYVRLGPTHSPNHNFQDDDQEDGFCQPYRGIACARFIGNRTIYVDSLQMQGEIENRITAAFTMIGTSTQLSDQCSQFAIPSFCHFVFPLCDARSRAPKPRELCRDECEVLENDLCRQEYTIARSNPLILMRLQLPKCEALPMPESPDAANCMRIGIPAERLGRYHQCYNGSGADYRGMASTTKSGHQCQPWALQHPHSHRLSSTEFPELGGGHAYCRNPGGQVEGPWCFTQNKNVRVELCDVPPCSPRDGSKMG
Test: ELISA

Row | EC50 [µg/mL] | Binder
13 | 7.65 | B13

Target: T3, cynomolgus Ror2 (cynomolgus, UniProt A0A7N9D5U8 34-403)
T3 construct: also called cynoROR2
T3 sequence (A0A7N9D5U8 entry or part of it): as the sequence (Q01974 34-403 limits assumed) above, with L5P, T212A, M289T, T320A counted along it
Test: ELISA

Row | EC50 [µg/mL] | Binder
14 | 0.327 | B13

Target: T1, human Ror2
Test: ELISA

Row | EC50 [µg/mL] | Binder
15 | 0.201 | B13

Target: T1, human Ror2
Test: ELISA, human Ror2; ratio of signal at pH 6.0 to pH 7.4

Row | ratio, pH 6.0/7.4 | Binder
16 | 3.52 | B1
17 | 2.91 | B2
18 | 2.46 | B3
19 | 1.74 | B4
20 | 1.59 | B5
21 | 2.28 | B6
22 | 1.77 | B7
23 | 1.04 | B8
24 | 15.9 | B9
25 | 1 | B10
26 | 1.92 | B11
27 | 2.19 | B12

Target: T1, human Ror2
Test: ELISA, human Ror2, pH 6.0

Row | Affinity ELISA pH 6.0 | Binder
28 | 0.468 | B1
29 | 0.733 | B2
30 | 0.66 | B3
31 | 0.438 | B4
32 | 0.755 | B5
33 | 0.489 | B6
34 | 0.19 | B7
35 | 1.23 | B8
36 | 1.87 | B9
37 | 1.13 | B10
38 | 1.34 | B11
39 | 0.56 | B12
